We go through five molecules from article PMC9482650, “Quantitative fragmentomics allow affinity mapping of interactomes” (Nature Communications, 2022).

Assay in all cases: holdup assay
Holding throughout (set-up): key: below the threshold = too weak to quantify, mostly under pKd 3.1 to 4
Settings in all cases: plain residues with an end cap or a label only (N-terminal biotin on a linker: ado-ado)

For assay [1], the target named is T1, MPDZ_10, O75970.
T1 sequence (O75970 1624-1722, limits assumed, looked up): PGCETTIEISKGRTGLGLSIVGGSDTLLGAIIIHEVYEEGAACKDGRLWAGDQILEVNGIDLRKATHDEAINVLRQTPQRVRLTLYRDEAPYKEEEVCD

In assay [2] the target is T2, MPDZ_5, O75970.
T2 sequence (O75970 695-796, limits assumed, looked up): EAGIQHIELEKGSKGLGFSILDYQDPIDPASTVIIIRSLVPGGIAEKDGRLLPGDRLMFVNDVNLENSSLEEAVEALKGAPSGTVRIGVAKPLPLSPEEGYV

Assay [3] concerns the target GRID2IP_2, A4D2P6.
Assay [4] concerns the target T3, TX1BP3, O14907.
T3 sequence (O14907 10-122, limits assumed, looked up): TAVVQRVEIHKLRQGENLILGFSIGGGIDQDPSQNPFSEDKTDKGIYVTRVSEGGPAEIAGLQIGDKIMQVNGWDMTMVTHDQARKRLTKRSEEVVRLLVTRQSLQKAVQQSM

Assay [5] addresses T4, DLG3_2, Q92796.
T4 sequence (Q92796 221-321, limits assumed, looked up): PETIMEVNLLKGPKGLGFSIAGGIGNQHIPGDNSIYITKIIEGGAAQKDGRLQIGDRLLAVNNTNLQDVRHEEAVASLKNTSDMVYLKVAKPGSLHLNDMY

For assay [6], the target named is LNX1_2, Q8TBB1.
In assay [7] the target is PICK1, Q9NRD5.
In assay [8] the target is T5, ARHGEF11, O15085.
T5 sequence (O15085 42-136, limits assumed, looked up): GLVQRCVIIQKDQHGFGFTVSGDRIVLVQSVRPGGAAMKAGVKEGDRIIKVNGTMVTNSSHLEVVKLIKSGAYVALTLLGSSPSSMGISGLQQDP

The target in assay [9] is MAGI1_2, Q96QZ7.
Assay [10] deals with T6, LIN7B, Q9HAP6.
T6 sequence (Q9HAP6 88-185, limits assumed, looked up): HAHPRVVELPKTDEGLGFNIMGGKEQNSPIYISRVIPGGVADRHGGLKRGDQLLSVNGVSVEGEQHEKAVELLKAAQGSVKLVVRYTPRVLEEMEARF

For assay [11], the target named is T7, APBA1_1, Q02410.
T7 sequence (Q02410 651-752, limits assumed, looked up): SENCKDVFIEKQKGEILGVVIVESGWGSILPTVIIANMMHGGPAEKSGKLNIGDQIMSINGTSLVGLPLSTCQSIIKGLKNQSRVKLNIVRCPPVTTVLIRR

Assay [12] has as its target GRASP, Q7Z6J2.
The target in assay [13] is T8, LIN7C, Q9NUP9.
T8 sequence (Q9NUP9 88-185, limits assumed, looked up): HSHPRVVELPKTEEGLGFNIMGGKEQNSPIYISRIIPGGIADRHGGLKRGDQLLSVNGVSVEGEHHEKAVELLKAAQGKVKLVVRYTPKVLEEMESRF

Assay [14] addresses T9, PDZD2_2, O15018.
T9 sequence (O15018 329-429, limits assumed, looked up): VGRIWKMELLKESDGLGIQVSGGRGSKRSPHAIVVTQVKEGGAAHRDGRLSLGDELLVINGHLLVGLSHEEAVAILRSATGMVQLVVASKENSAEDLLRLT

Assay [15] concerns the target T10, SNTB1, Q13884.
T10 sequence (Q13884 107-205, limits assumed, looked up): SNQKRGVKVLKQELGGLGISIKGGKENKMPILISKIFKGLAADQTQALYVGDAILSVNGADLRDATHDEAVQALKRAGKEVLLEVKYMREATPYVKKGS

Assay [16] deals with T11, TIAM2, Q8IVF5.
T11 sequence (Q8IVF5 885-986, limits assumed, looked up): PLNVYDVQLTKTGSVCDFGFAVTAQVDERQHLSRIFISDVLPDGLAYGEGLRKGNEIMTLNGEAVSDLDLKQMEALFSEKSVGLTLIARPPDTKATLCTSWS

In assay [17] the target is SNX27, Q96L92.
For assay [18], the target named is LAP2, Q96RT1.
Assay [19] concerns the target FRMPD2_3, Q68DX3.
Assay [20] concerns the target Inadl_6, Q8NI35.
For assay [21], the target named is T12, GRIP1_4, Q9Y3R0.
T12 sequence (Q9Y3R0 467-571, limits assumed, looked up): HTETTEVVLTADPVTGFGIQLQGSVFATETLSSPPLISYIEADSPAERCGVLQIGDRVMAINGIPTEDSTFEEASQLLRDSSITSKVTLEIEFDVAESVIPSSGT

Assay [22] has as its target FRMPD2_2, Q68DX3.
Assay [23] concerns the target T13, DVL3, Q92997.
T13 sequence (Q92997 244-331, limits assumed, looked up): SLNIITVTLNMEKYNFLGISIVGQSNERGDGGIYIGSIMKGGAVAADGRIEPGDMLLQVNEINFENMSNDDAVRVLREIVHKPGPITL

FRMPD2_3, Q68DX3, sequence (Q68DX3 1073-1166): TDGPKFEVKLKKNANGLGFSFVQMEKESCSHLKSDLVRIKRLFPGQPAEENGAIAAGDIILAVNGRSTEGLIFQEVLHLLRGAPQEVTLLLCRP
GRID2IP_2, A4D2P6, sequence (A4D2P6 272-370): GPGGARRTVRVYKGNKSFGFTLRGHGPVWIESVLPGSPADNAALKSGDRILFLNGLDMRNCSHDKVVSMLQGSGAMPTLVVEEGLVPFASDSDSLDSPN
Inadl_6, Q8NI35, sequence (Q8NI35 1058-1167): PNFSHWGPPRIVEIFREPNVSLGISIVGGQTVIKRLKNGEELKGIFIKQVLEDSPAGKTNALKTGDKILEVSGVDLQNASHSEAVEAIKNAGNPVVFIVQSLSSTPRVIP
PICK1, Q9NRD5, sequence (Q9NRD5 17-115): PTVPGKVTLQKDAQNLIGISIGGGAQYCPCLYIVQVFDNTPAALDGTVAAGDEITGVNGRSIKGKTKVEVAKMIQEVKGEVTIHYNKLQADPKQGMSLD
LAP2, Q96RT1, sequence (Q96RT1 other isoform, or with tags, fused parts or gaps): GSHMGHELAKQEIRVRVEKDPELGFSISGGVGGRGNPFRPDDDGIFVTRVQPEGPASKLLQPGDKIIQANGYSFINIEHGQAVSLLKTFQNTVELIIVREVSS
FRMPD2_2, Q68DX3, sequence (Q68DX3 944-1038): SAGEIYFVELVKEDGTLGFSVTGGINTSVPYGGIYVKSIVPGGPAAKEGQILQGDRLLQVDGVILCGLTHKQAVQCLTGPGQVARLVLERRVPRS
LNX1_2, Q8TBB1, sequence (Q8TBB1 371-470): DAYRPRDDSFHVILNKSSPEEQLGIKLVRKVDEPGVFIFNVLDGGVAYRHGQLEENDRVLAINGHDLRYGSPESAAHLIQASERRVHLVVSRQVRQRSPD
GRASP, Q7Z6J2, sequence (Q7Z6J2 96-193): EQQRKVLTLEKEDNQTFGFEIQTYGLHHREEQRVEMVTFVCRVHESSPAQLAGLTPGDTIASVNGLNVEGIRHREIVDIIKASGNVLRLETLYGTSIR
MAGI1_2, Q96QZ7, sequence (Q96QZ7 456-580): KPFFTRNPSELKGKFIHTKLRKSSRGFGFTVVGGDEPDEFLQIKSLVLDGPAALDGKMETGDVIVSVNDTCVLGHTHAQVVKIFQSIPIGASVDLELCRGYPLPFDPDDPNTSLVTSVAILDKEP

As for DFKHTKSFII [JAM2, P57087], the pKd result in assay [1] is “below the threshold”; in [2], “below the threshold”; in [3] it was “below the threshold”; in [4], “below the threshold”; in assay [5], 4.2; in [6], “below the threshold”. The pKd result is “below the threshold” in [7]; “below the threshold” in [8]; “below the threshold” in assay [9]; 3.63 in [10]; “below the threshold” in [11]; “below the threshold” in assay [12]. Also, the pKd entry in assay [13] was “below the threshold”; in assay [14] it was 3.87; in [15], “below the threshold”; in assay [16], 4.19; in [17] it was “below the threshold”; in assay [18], “below the threshold”. For the same molecule, the pKd result in [19] is “below the threshold”; in assay [20], “below the threshold”; in assay [21] it was “below the threshold”; in assay [22], “below the threshold”; in assay [23], 3.67.

For the molecule EFKQTSSFLV [JAM1, Q9Y624], the pKd entry was “below the threshold” in assay [1]; “below the threshold” in assay [2]; “below the threshold” in assay [3]; “below the threshold” in [4]; 4.2 in assay [5]; 4.26 in assay [6]. The pKd in assay [7] is 4.27; in assay [8] it was “below the threshold”; in assay [9], “below the threshold”; in [10] it was 3.88; in assay [11], “below the threshold”; in assay [12], 3.56. Moreover, the pKd result in [13] was “below the threshold”; in [14], 3.72; in assay [15], “below the threshold”; in assay [16] it was 4.14; in [17], “below the threshold”; in assay [18], “below the threshold”. The pKd entry in [19], in [20], in assay [21], in assay [22] and in [23] was “below the threshold” in each case.

On to EPAKETTTNV [SLC2A3, P11169], for which the pKd entry is “below the threshold” in assay [1]; “below the threshold” in assay [2]; 3.65 in assay [3]; 4.12 in assay [4]; 4.15 in [5]; “below the threshold” in [6]. The pKd result in assay [7] was “below the threshold”; in assay [8], 4; in [9], “below the threshold”; in assay [10] it was “below the threshold”; in assay [11], “below the threshold”; in assay [12], 3.69. For the same molecule, the pKd in assay [13] was 4.05; in assay [14], 4.97; in assay [15], 4.57; in assay [16], “below the threshold”; in assay [17], 4.95; in [18] it was 3.64. Moreover, the pKd entry in [19] is “below the threshold”; in assay [20], “below the threshold”; in [21], “below the threshold”; in [22], 4.11; in [23], “below the threshold”.

Take GNDPDRGTSI [GRID2, O43424]: the pKd entry in [1] is “below the threshold”; in [2], “below the threshold”; in assay [3], 4.16; in assay [4], “below the threshold”; in assay [5], 4.25; in assay [6], “below the threshold”. Besides, the pKd result in [7] is “below the threshold”; in assay [8], “below the threshold”; in assay [9], “below the threshold”; in assay [10], 3.69; in [11] it was “below the threshold”; in [12], “below the threshold”. Moreover, the pKd result is “below the threshold” in [13]; 4.76 in assay [14]; “below the threshold” in [15]; 4.09 in [16]; “below the threshold” in [17]; “below the threshold” in assay [18]. The pKd entry in [19], in assay [20], in assay [21], in assay [22] and in [23] was “below the threshold” each time.

Turning to SGDGKTSVWI [GJC1, P36383], the pKd entry in assay [1] is “below the threshold”; in [2], “below the threshold”; in [3] it was 4.33; in assay [4] it was “below the threshold”; in [5], 4.16; in assay [6], 4.03. Also, the pKd entry was “below the threshold” in assay [7]; 3.61 in assay [8]; “below the threshold” in [9]; 3.74 in [10]; 3.69 in assay [11]; “below the threshold” in [12]. Also, the pKd entry in [13] was “below the threshold”; in assay [14], 5.57; in assay [15] it was “below the threshold”; in assay [16], 4.21; in assay [17], 3.56; in assay [18], 3.81. The pKd result in assay [19] was “below the threshold”; in assay [20], 3.69; in [21], “below the threshold”; in assay [22], “below the threshold”; in assay [23], 4.23.

The term pKd denotes −log10 of the Kd, conventionally taken in molar units.
